PMC6374468 (Nature Communications, 2019)

Molecular target: monomeric gp120 from isolate BaL (HIV-1 clade B, isolate BaL (clone not …, UniProt Q6TAP7, strain))
Assay: ELISA

B1: VRC01 FR3-03 (antibody, V domains shown)
VH: QVQLVQSGGQMKKPGESMRISCRASGYEFIDCTLNWIRLAPGKRPEWMGWLKPRGGAVNYARPLQGRVTMTRQLSQDPDDPDWGTAFLELRSLTVDDTAVYFCTRGKNCDYNWDFEHWGRGTPVIVGG
VL: EIVLTQSPGTLSLSPGETAIISCRTSQYGSLAWYQQRPGQAPRLVIYSGSTRAAGIPDRFSGSRWGPDYNLTISNLESGDFGVYYCQQYEFFGQGTKVQVG
- binding result: binds
